From patent publication US20160361434

Assays:
[1] = target: BSA-HH12Q11 conjugate, P02769
[2] = target: Bovine serum albumin, P02769
CF13Q4 = target: T1, CF13Q4
T1 chain: CYEQHKLPSSWPF

CS9Q4 = target: T2, CS9Q4
T2 chain: CYEQHKLPS

CW8Q3 = target: T3, CW8Q3
T3 chain: CDQMMLPW

DH6N5 = target: T4, DH6N5
T4 chain: DVYSNH

DH6Q5 = target: T5, DH6Q5
T5 chain: DVYSQH

FE5Q4 = target: T6, FE5Q4
T6 chain: FWIQE

FY12Q10 = target: T7, FY12Q10
T7 chain: FPWSSPLKHQEY

GS12Q7 = target: T8, GS12Q7
T8 chain: GGSPLAQSHGGS

HH12N11 = target: T9, HH12N11
T9 chain: HDLMWPDVYSNH

HH12Q11 = target: T10, HH12Q11
T10 chain: HDLMWPDVYSQH

SY10Q8 = target: T11, SY10Q8
T11 chain: SPLKHQEY

TGpan = target: T12, TGpan
T12 chain: QG

HG14Q11 = target: T13, HG14Q11
T13 chain: HDLMWPDVYSQHGG

WG10Q7 = target: T14, WG10Q7
T14 chain: WPDVYSQHGG

YV10 = target: T15, YV10
T15 chain: YLADTNSLAV

Sequence of BSA-HH12Q11 conjugate, P02769 (P02769 25-607): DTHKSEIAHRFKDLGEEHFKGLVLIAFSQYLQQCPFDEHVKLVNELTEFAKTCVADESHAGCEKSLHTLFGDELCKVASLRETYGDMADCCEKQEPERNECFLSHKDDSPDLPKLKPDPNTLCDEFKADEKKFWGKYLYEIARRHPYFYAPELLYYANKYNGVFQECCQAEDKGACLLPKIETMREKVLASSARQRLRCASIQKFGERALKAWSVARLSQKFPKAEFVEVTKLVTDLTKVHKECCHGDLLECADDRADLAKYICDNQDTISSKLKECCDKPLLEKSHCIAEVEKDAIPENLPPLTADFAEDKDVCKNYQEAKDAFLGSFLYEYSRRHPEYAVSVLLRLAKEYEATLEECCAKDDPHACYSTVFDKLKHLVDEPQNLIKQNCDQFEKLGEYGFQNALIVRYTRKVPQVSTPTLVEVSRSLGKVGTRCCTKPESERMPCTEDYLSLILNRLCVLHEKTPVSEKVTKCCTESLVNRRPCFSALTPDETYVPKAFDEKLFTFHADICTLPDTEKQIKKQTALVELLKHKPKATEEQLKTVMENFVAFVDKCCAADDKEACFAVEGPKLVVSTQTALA
Sequence of Bovine serum albumin, P02769 (P02769 25-607): as above

B1: Recombinant microbial transglutaminase (mTG) (protein)
chain: DSDDRVTPPAEPLDRMPDPYRPSYGRAETVVNNYIRKWQQVYSHRDGRKQQMTEEQREWLSYGCVGVTWVNSGQYPTNRLAFASFDEDRFKNELKNGRPRSGETRAEFEGRVAKESFDEEKGFQRAREVASVMNRALENAHDESAYLDNLKKELANGNDALRNEDARSPFYSALRNTPSFKERNGGNHDPSRMKAVIYSKHFWSGQDRSSSADKRKYGDPDAFRPAPGTGLVDMSRDRNIPRSPTSPGEGFVNFDYGWFGAQTEADADKTVWTHGNHYHAPNGSLGAMHVYESKFRNWSEGYSDFDRGAYVITFIPKSWNTAPDKVKQGWP
mTG incorporation of biot-cad into coated conjugate (A450) [1]: a good incorporation of biot-cad was obtained with BSA-HH12Q11 conjugate
mTG incorporation of biot-cad into coated protein (A450) [2]: no reactivity with free BSA
mTG-mediated incorporation of biotin-X-cadaverine into plate-coupled peptide (A450) (CF13Q4): The other peptides listed in table 1 didn't show any reactivity with mTG
mTG-mediated incorporation of biotin-X-cadaverine into plate-coupled peptide (A450) (CS9Q4): The other peptides listed in table 1 didn't show any reactivity with mTG
mTG-mediated incorporation of biotin-X-cadaverine into plate-coupled peptide (A450) (CW8Q3): The other peptides listed in table 1 didn't show any reactivity with mTG
mTG-mediated incorporation of biotin-X-cadaverine into plate-coupled peptide (A450) (DH6N5): The other peptides listed in table 1 didn't show any reactivity with mTG
mTG-mediated incorporation of biotin-X-cadaverine into plate-coupled peptide (A450) (DH6Q5): Peptides FE5Q4, HH12Q11 and DH6Q7 were found to be good substrate for mTG
mTG-mediated incorporation of biotin-X-cadaverine into plate-coupled peptide (A450) (FE5Q4): found to be good substrate for mTG with better reactivity of the peptides FE5Q4 and HH12Q11
mTG-mediated incorporation of biotin-X-cadaverine into plate-coupled peptide (A450) (FY12Q10): The other peptides listed in table 1 didn't show any reactivity with mTG
mTG-mediated incorporation of biotin-X-cadaverine into plate-coupled peptide (A450) (GS12Q7): showed low reactivity to mTG in comparison with the other peptides
mTG-mediated incorporation of biotin-X-cadaverine into plate-coupled peptide (A450) (HH12N11): no reactivity of the mTG was observed
mTG-mediated incorporation of biotin-X-cadaverine into plate-coupled peptide (A450) (HH12Q11): found to be good substrate for mTG with better reactivity of the peptides FE5Q4 and HH12Q11
mTG-mediated incorporation of biotin-X-cadaverine into plate-coupled peptide (A450) (SY10Q8): The other peptides listed in table 1 didn't show any reactivity with mTG
mTG-mediated incorporation of biotin-X-cadaverine into plate-coupled peptide (A450) (TGpan): showed low reactivity to mTG in comparison with the other peptides

B2: Recombinant human transglutaminase 2 (hTG2) (protein)
chain: MAEELVLERCDLELETNGRDHHTADLCREKLVVRRGQPFWLTLHFEGRNYEASVDSLTFSVVTGPAPSQEAGTKARFPLRDAVEEGDWTATVVDQQDCTLSLQLTTPANAPIGLYRLSLEASTGYQGSSFVLGHFILLFNAWCPADAVYLDSEEERQEYVLTQQGFIYQGSAKFIKNIPWNFGQFEDGILDICLILLDVNPKFLKNAGRDCSRRSSPVYVGRVVSGMVNCNDDQGVLLGRWDNNYGDGVSPMSWIGSVDILRRWKNHGCQRVKYGQCWVFAAVACTVLRCLGIPTRVVTNYNSAHDQNSNLLIEYFRNEFGEIQGDKSEMIWNFHCWVESWMTRPDLQPGYEGWQALDPTPQEKSEGTYCCGPVPVRAIKEGDLSTKYDAPFVFAEVNADVVDWIQQDDGSVHKSINRSLIVGLKISTKSVGRDEREDITHTYKYPEGSSEEREAFTRANHLNKLAEKEETGMAMRIRVGQSMNMGSDFDVFAHITNNTAEEYVCRLLLCARTVSYNGILGPECGTKYLLNLNLEPFSEKSVPLCILYEKYRDCLTESNLIKVRALLVEPVINSYLLAERDLYLENPEIKIRILGEPKQKRKLVAEVSLQNPLPVALEGCTFTVEGAGLTEEQKTVEIPDPVEAGEEVKVRMDLLPLHMGLHKLVVNFESDKLKAVKGFRNVIIGPA
TG2-mediated incorporation of biotin-cadaverine into plate-coupled peptide (A450) (CF13Q4): none of the other peptides react with the enzyme and cannot be used as substrate for TG2
TG2-mediated incorporation of biotin-cadaverine into plate-coupled peptide (A450) (CS9Q4): none of the other peptides react with the enzyme and cannot be used as substrate for TG2
TG2-mediated incorporation of biotin-cadaverine into plate-coupled peptide (A450) (CW8Q3): none of the other peptides react with the enzyme and cannot be used as substrate for TG2
TG2-mediated incorporation of biotin-cadaverine into plate-coupled peptide (A450) (DH6N5): none of the other peptides react with the enzyme and cannot be used as substrate for TG2
TG2-mediated incorporation of biotin-cadaverine into plate-coupled peptide (A450) (DH6Q5): none of the other peptides react with the enzyme and cannot be used as substrate for TG2
TG2-mediated incorporation of biotin-cadaverine into plate-coupled peptide (A450) (FE5Q4): none of the other peptides react with the enzyme and cannot be used as substrate for TG2
TG2-mediated incorporation of biotin-cadaverine into plate-coupled peptide (A450) (FY12Q10): none of the other peptides react with the enzyme and cannot be used as substrate for TG2
TG2-mediated incorporation of biotin-cadaverine into plate-coupled peptide (A450) (GS12Q7): none of the other peptides react with the enzyme and cannot be used as substrate for TG2
TG2-mediated incorporation of biotin-cadaverine into plate-coupled peptide (A450) (HG14Q11): none of the other peptides react with the enzyme and cannot be used as substrate for TG2
TG2-mediated incorporation of biotin-cadaverine into plate-coupled peptide (A450) (HH12N11): none of the other peptides react with the enzyme and cannot be used as substrate for TG2
TG2-mediated incorporation of biotin-cadaverine into plate-coupled peptide (A450) (HH12Q11): HH12Q11 show less reactivity with TG2 than mTG
TG2-mediated incorporation of biotin-cadaverine into plate-coupled peptide (A450) (SY10Q8): none of the other peptides react with the enzyme and cannot be used as substrate for TG2
TG2-mediated incorporation of biotin-cadaverine into plate-coupled peptide (A450) (TGpan): TGpan is good substrate for TG2 confirming its specificity to this enzyme
TG2-mediated incorporation of biotin-cadaverine into plate-coupled peptide (A450) (WG10Q7): none of the other peptides react with the enzyme and cannot be used as substrate for TG2
TG2-mediated incorporation of biotin-cadaverine into plate-coupled peptide (A450) (YV10): none of the other peptides react with the enzyme and cannot be used as substrate for TG2
